According to patent US20090117590A1, “Human calcium sensitive potassium channel beta3 subunit proteins, encoding nucleic acid and uses thereof” (priority 1999, published 2009):
Where two headings read alike, the source gives them in different places.

B1: β3b: β3b subunit of human calcium sensitive potassium channel, amino acid sequence SEQ. ID. NO.:6 (protein, listed as Homo Sapiens)
chain: MTAFPASGKKRETDYSDGDPLDVHKRLPSSTGEDRAVMLGFAMMGFSVLMFFLLGTTILKPFMLSIQREESTCTAIHTDIMDDWLDCAFTCGVHCHGQGKYPCLQVFVNLSHPGQKALLHYNEEAVQINPKCFYTPKCHQDRNDLLNSALDIKEFFDHKNGTPFSCFYSPASQSEDVILIKKYDQMAIFHCLFWPSLTLLGGALIVGMVRLTQHLSLLCEKYSTVVRDEVGGKVPYIEQHQFKLCIMRRSKGRAEKS
B2: β3a: β3a subunit of human calcium sensitive potassium channel, amino acid sequence SEQ. ID. NO.:4 (protein, listed as Homo Sapiens)
chain: MQPFSIPVQITLQGSRRRQGRTAFPASGKKRETDYSDGDPLDVHKRLPSSTGEDRAVMLGFAMMGFSVLMFFLLGTTILKPFMLSIQREESTCTAIHTDIMDDWLDCAFTCGVHCHGQGKYPCLQVFVNLSHPGQKALLHYNEEAVQINPKCFYTPKCHQDRSDLLNSALDIKEFFDHKNGTPFSCFYSPASQSEDVILIKKYDQMAIFHCLFWPSLTLLGGALIVGMVRLTQHLSLLCEKYSTVVRDEVGGKVPYIEQHQFKLCIMRRSKGRAEKS
B3: β2: β2 subunit of human calcium sensitive potassium channel, amino acid sequence SEQ. ID. NO.:2 (protein, listed as Homo Sapiens)
chain: MFIWTSGRTSSSYRHDEKRNIYQKIRDHDLLDKRKTVTALKAGEDRAILLGLAMMVCSIMMYFLLGITLLRSYMQSVWTEESQCTLLNASITETFNCSFSCGPDCWKLSQYPCLQVYVNLTSSGEKLLLYHTEETIKINQKCSYIPKCGKNFEESMSLVNVVMENFRKYQHFSCYSDPEGNQKSVILTKLYSSNVLFHSLFWPTCMMAGGVAIVAMVKLTQYLSLLCERIQRINR
B4: β1: previously known human calcium sensitive potassium channel β1 subunit, SEQ. ID. NO.:11, GenBank U25138 (protein)
chain: MVKKLVMAQKRGETRALCLGVTMVVCAVITYYILVTTVLPLYQKSVWTQESKCHLIETNIRDQEELKGKKVPQYPCLWVNVSAAGRWAVLYHTEDTRDQNQQCSYIPGSVDNYQTARADVEKVRAKFQEQQVFYCFSAPRGNETSVLFQRLYGPQALLFSLFWPTFLLTGGLLIIAMVKSNQYLSILAAQK
B5: β3d: β3d subunit of human calcium sensitive potassium channel, amino acid sequence SEQ. ID. NO.:10 (protein)
chain: MDFSPSSELGFHFVAFILLTRHRTAFPASGKKRETDYSDGDPLDVHKRLPSSTGEDRAVMLGFAMMGFSVLMFFLLGTTILKPFMLSIQREESTCTAIHTDIMDDWLDCAFTCGVHCHGQGKYPCLQVFVNLSHPGQKALLHYNEEAVQINPKCFYTPKCHQDRNDLLNSALDIKEFFDHKNGTPFSCFYSPASQSEDVILIKKYDQMAIFHCLFWPSLTLLGGALIVGMVRLTQHLSLLCEKYSTVVRDEVGGKVPYIEQHQFKLCIMRRSKGRAEKS
B6: β3c: β3c subunit of human calcium sensitive potassium channel, amino acid sequence SEQ. ID. NO.:8 (protein)
chain: MFPLLYELTAVSPSPFPQRTAFPASGKKRETDYSDGDPLDVHKRLPSSTGEDRAVMLGFAMMGFSVLMFFLLGTTILKPFMLSIQREESTCTAIHTDIMDDWLDCAFTCGVHCHGQGKYPCLQVFVNLSHPGQKALLHYNEEAVQINPKCFYTPKCHQDRSDLLNSALDIKEFFDHKNGTPFSCFYSPASQSEDVILIKKYDQMAIFHCLFWPSLTLLGGALIVGMVRLTQHLSLLCEKYSTVVRDEVGGKVPYIEQHQFKLCIMRRSKGRAEKS

Columns and labels:
[1] = test system: α subunit of a human calcium sensitive potassium channel (human Slowpoke α); experiment: Electrophysiological analysis of β subunits co-expressed with the α subunit in Xenopus oocytes, inside-out patches; format: cell-based; details: for changes in the kinetics and voltage dependence of the channels formed by α subunits / V1/2 (half-maximal activation, Boltzmann fit to normalized conductances): inside-out patches, internal Ca2+ 30 μM; for changes in the kinetics and voltage dependence of the channels formed by α subunits: α and β cRNAs 1:10; for shift of the voltage dependence compared to channels containing only α subunits: micromolar intracellular Ca2+; for inactivation of calcium sensitive potassium currents: co-expressed with the α subunit; for V1/2 (half-maximal activation, Boltzmann fit to normalized conductances): α and β cRNAs 1:10 (β in excess), α subunit alone 20 mV
Protocol: The voltage clamp protocol consisted of a pre-pulse to −160 mV (200 ms), followed by 20 mV depolarizing steps from −80 to +80 mV (500 ms); holding potential was −80 mV; internal Ca^2+ was 30 μM. […] FIG. 7B: Boltzmann equations were fit to normalized conductances for the records shown in 7A, which were calculated from peak currents and plotted as function of test potential. V1/2 values are: 20 mV (α subunit alone); −55 mV (α+β2 subunit); 45.36 mV (α+β3α subunit); 20 mV (α+β3c subunit). […] Inactivation rates and fractional inactivating current were calculated as described in Example 2.
The β2, β3a, β3b, β3c, and β3d subunits of the human calcium sensitive potassium channel have been expressed in Xenopus oocytes, both by themselves and in combination with an α subunit of a large-conductance calcium-sensitive potassium channel (maxi-K channel). […] The rates of inactivation produced by β2, β3a and β3c are dependent upon voltage and internal calcium concentration; inactivation time constants reach a maximum at high depolarizations and high micromolar calcium for β2, β3a and β3c, τinact ˜30-40 ms at 80 mV with 30 μM intracellular Ca^2+. […] (McManus et al., 1995, Neuron 14:645-650).
Electrophysiological analysis: cRNAs were synthesized in vitro from plasmids encoding human Slowpoke α or the β2, β3a, β3b, β3c, or β3d subunits and injected into Xenopus oocytes (1.5 ng/oocyte of α subunit RNA +/−β subunit RNA at 1, 5, or 10× molar excess). Calcium sensitive potassium currents were recorded in inside-out patches. Recordings were performed under ionic conditions of symmetrical potassium. The standard pipette and bath solutions contained 116 mM potassium gluconate, 4 mM potassium chloride, 10 mM HEPES, pH 7.2. CaCl2 was added to the bath solution to give final concentrations of free ionized calcium of 3-30 μM, taking into account the stability constant for calcium gluconate (15.9 M^−1). Currents were recorded using an EPC-7 amplifier (HEKA). The pClamp6.0 program (Axon Instruments) was used to generate voltage-clamp commands for data acquisition, and for analysis. NPO-voltage relations were determined at 3, 10 and 30 μM bath calcium using two methods: (1) calculation of macroscopic conductance from peak or steady-state currents at test potentials (−80 to 80 mV), or (2) measurement or calculation of tail currents peaks (−80 mV) at test potentials. Boltzmann functions were fit to the data and used to derive the half-maximal activation parameter (V1/2). Maximal inactivation parameters (30 μM Ca^2+ and 80 mV) were calculated from current traces or averaged current traces. Inactivation rates were determined from single exponential fits. Fractional non-inactivating current was calculated as steady-state/peak current; fractional inactivating current was estimated as peak current minus steady-state current divided by peak current.

[2] = test system: α subunit of a human calcium sensitive potassium channel (human Slowpoke α); details: previously described (McManus et al., 1995); cited from earlier work

Molecule | changes in the kinetics and voltage dependence of the channels formed by α subunits [1] | shift of the voltage dependence compared to channels containing only α subunits [1] | inactivation of calcium sensitive potassium currents [1] | V1/2 (half-maximal activation, Boltzmann fit to normalized conductances) [1] [mV] | shift in the voltage dependence of activation ([1]; towards negative potentials, with 30 μM Ca2+ in the bath) [mV] | inactivation of calcium sensitive potassium currents [2]
B1 | did not induce noticeable changes | do not shift the voltage dependence |  |  |  | 
B2 |  | do not shift the voltage dependence | induce inactivation | 45.36 |  | 
B3 |  |  | induce inactivation | −55 | ~80 | 
B4 |  |  |  |  |  | do not induce inactivation
B5 | did not induce noticeable changes | do not shift the voltage dependence |  |  |  | 
B6 |  | do not shift the voltage dependence | induce inactivation | 20 |  | 
